Data from patent US20110015139A1 (HE HENRY M JACKSON FOUNDATION FOR THE ADVANCEMENT OF …, published 2011).

Biological target: amyloid beta (Aβ) peptide, incorporated in membranes as the Aβ channel
Assay: cell-based or functional assay

Binder | concentration required for 50% protection (EC50) of PC12 cells from Aβ cytotoxicity, LDH release assay, 3 days [nM] | speed of 50% reduction of the flow of ionic charges, relative to NAHIS02 [fold] | EC50 of protection of PC12 cells from Aβ cytotoxicity (LDH release), as a multiple of the EC50 of NAHIS04 [times]
Ac-HHHH-NH2 [NAHIS04 (Ac-His-His-His-His-CONH2)] | < 1000 | 8 | –
SGYEVHH [NA4] | – | – | 2 to 3
EVHHQKL [NA7] | – | – | 2 to 3
